# In a protein production outcome set (Wang et al. 2014):
# Assay: label from the status in PepcDB records
row,Sequence,protein production
1,MTERGLLIVLSGPSGVGKGTVREAVFKDPETSFDYSISMTTRLPREGEQDGVDYYFRSREVFEQAIKDGKMLEYAEYVGNYYGTPLEYVEEKLAAGVDIFLEIEVQGAMQVRKAMPEGIFIFLTPPDLSELKNRIIGRGTESMEVVEERMETAKKEIEMMASYDYAVVNDVVANAVQKIKGIVETEHLKTERVIHRYKKMLEGLQ,not failed
2,MTESKKLWTGHIHLGEKVDFGVILNQLCQAFNGSPFFSHNAMQMRVIDNQIEGYIDMQPYLIGNVAFQILHGGVAATLLDSIGGIVAMAEIYRRAEATEMAEAIKKVSRLATVDMRVDYLAPGRGQYFIARAEVLRFGRKGCTMRMNLINDENKAIATAIASYAF,failed
3,MTESVARLRGEQLTLGYGKYTVAENLTVEIPDGHFTAIIGPNGCGKSTLLRTLSRLMTPAHGHVWLDGEHIQHYASKEVARRIGLLAQNATTLGDITVQELVARGRYPHQPLFTRWRKEDEEAVTKAMQATGITHLADQSVDTLSGGQRQRAWIAMVLAQETAIMLLDEPTTWLDISHQIDLLELLSELNREKGYTLAAVLHDLNQACRYASHLIALREGKIVAQGAPKEIVTAELIERIYGLRCMIIDDPVAGTPLVVPLGRTAPSTANS,failed
4,MTETKPRIAIRYCTQCNWLLRAGWMAQEILQTFASDIGEVSLIPSTGGLFEITVDGTIIWERKRDGGFPGPKELKQRIRDLIDPERDLGHVDRTKHEGLDT,not failed
5,MTEVALSPRGRSVAYTVRRLSPGQAPAPRARLYVARTSGRDDPRLLFQDEHDIRAPAWHPDGTHLAFVRPVNGTPQVFVIPLNGGVPYRLTDTPHGAQAPQWGPDGERLLFASHVPEPAVRRQTARRPPTERPGRTASDTIRTPPPDTLLVLRHDRTLRPVDTLAVDADGRPQTPTDTTDTLHVPRHSSLSDTLTAPPVRRLAGLSPDSLQAVFDRFRLRSDTTTVAVRPDTAAAPNGTLAQVRRWMHQNRRSGTALVSSRLEIQGERQLRPTPTYRHHYVVDLPAGIRSGRPPRPTPRLLTGGYRSYGQADWLPGGEQVVVSGMPATNESPDRVRRRNLYVADLNTPRLRRLLRIENHTLTSPSVTTDGSTVAFRVESLAPSSDAPAEIGLFALDGRSQPRILTSALDRDVTSVTWAPDGWYLYTTAPSEGGRPLFRFTPFAQDTTDGAPQAPSPTLPTDRATSRNTFTFDSTMVRPAEAEQLTSAARAIHSFDVTDATAVYASTDPTTPSALYANTVSFNNERPLATPNAEWLSRRQVAPPDRMTVSHDSLAVTGWVTRPVAFADSLRHPLFVQARGGPPALSAPYTPEAWFERQYLTGRGLGLVEGFPRGSAGFGTAFRRANDKNWGPGPARDILALADSAAALSWTDSTRVALGGTGYGGTLTAWILGRTNRFAAAVALNGVYDLPALLGGGRAWRLVPAEFGGYPWDGVPPRSLGDPVLSSRLPSPDSTAQTPWTALHRNSPLTYAHRIRTPLLLMQGGADRRVGPSQGERLYKRLKILDRPVEYVRYPEVGHDMSASASPRQRLDRLVRTYEFLARFLEPPAPPTAPQSPPRP,failed
6,MTEWYVVLPATILLIALSAFFVIIEFALLAARRNRLEETVETSRSSRAALRSLNELTLMLAGAQLGITMVTFALGAITKPWVHYALMPLFEWARIPLVMADVIAFILSLFIVTFLHLVIGEMAPKSWAIAHPETALRTIAIPARGFINLFRPLLQWINKMANDLVRKVGETPVDRAAAGGYDTDTLHALIEHSRETGALDQQSAAQISGIIKLDKITVGQTLTASPFTHSASATVAEVQAAAQRSGSLRVLIDAPSHLFPHVIHVRDTLGASPDEKASKWSRPILTVAETDTLHQALEYMREHNEQISAVLSADGKTVLGVITWDHILKYLWPASV,failed
7,MTEYKQEQEMEIEALEAILMDEFKEIHSSESGLNTSNRCFQITVTPQDDELEELAIPPVQLALVFSHTENYPDEAPLLDVKSIRGIHVSDLTILKEKLEQEASENLGMAMIYTLVSSAKDWLSEHYGQDDAAEFAEVEAAKEDEVIVPHGEPVTLETFLAWRERYEAELALERAKLMPESALTAPKEKKLTGRQWFESGRGRGTVVIADEEDEEEDEEDIDFEDEDFEDDEEDMLEHYLAEKSDSSAPPTRT,failed
8,MTFAWGRGSHGGAGMRIVQITDTHFSPTKAHFNGNWAPLAAWIEQSGADLVIHTGDLSVDGADRDDDIAFCMDLMREISAPMLLVPGNHDVGHLPGSLQPVNAGRLERWRRLVGPDYWMEDAGSWRLIGLDSLLMGFDDAEEEAQFDWLRTVLESRGGRRVALFAHKPLFVDAPGEGDTGYWSVRPAQRQRLYDLIATHDVALFASGHLHRAWQGKYENTSLVWGPSAAFVVGDMERDMPGERLLGAVIHQFSDTVTSEIVAIPGMTAYVLDDVVAEVYPHEAHKARKRVASLEHHHHHH,failed
9,MTFEDLHEYLDYLAKKNDLVTITEEVDPNLDLTYILSEEERMGRGRTILFKNVKGSQVPAVGNLFSTNEKLKAVLGDDPYSIGVKIADIVKPPRDSESFIGKGLEMMRELSGLRPKVSNSIPSGYSELEKVDLYRYPICKTWPDDGGPFITLPLVITKDPSTGIRNMGMYRMQVYDSETTGMHWHIHKGGSENFLKEKEKGKAMDVAVVIGSDPLTIFSAVAPLPNGIDEFMFRGLISRKRSELVKGKTVDLEYPRNFEIVLEGYIDPSETRVEGPFGDHTGYYSLEEEFPVFHVKNIIERNDRIYPTTIVGKLWHEDVVLGKAVERMFLPLIQMVLPEVVDINTMEEAVFHNMVIVSIKKRYPGHAKKVMFALWGLGQLMFSKIIVVVDDDINIHNRKELIWAMTTRIDPDRDVIIIPGTVTDSLDHAAPLFNYGSKMGIDATKKDKSEGYTRRWPDVLEMPKDVVDKVRQIMKNNRLIQLEHHHHHH,failed
10,MTFEEFKDRLFALAKKNGVEVQISFLETREFSLRLANGDLDQYTDAGKFNVEIKVLKDGKTGTFRTQVLENPEKCFEEALSNLQVKDSEEKEYFFEGGKEYREMETYVGRFEKLSVKEKMDMAKKAHESAAKDERVVMVPTVMYKDMVIKKIITNTLGLDVESQMDGGFLFAMAIARDANPRSGSWYELARTPEDLNPEEIGKRAAEEAISLIGSKTIPSGKYPVLMRNTALLDLMEMFIPMISAENVQKNLSPLKGKLGEQVGNPAVSIKDLPYHPKGLSSTPFDDEGVPTTEKFVLENGVLKTFLHNLKTARKEGVEPTGNGFVGGIRPVNLMLMPGEKSFEELLKEMDRGVVITEVEGMHAGANSISGEFSLFAKGYWVENGEIAHGVEDITISGNFLDLLRKIVLVGNDVKVSQHTIAPSVLVEVLDVAGK,not failed
11,MTFKRSLFFLLLLLSVATARAQIDVDRVITIGRNALYFNDYVVSIGYFNQVVGLRPWMAEPYFYRGIAKISLEDYTGAEADASACLQRNALIPKAYLLRGVARQNLGKIDSAIQDYRRGLELMPNDEGMLVNLTGVLTDSKRYAEAREGVAELLKFYPKSKQAHIALSAIELGEQDTVAAIRELNEVLRMDSLFAPAYSQMAMLHLKSKRNAEAMAALDKAIELEPSELSNYINRGVIRYQSNDLRGAMDDYSHVVRQKPNDKLARFNRALLRSYLGDVNNAIEDFDVVIRLEPENYHALYNRAILLTQINENRKAITDFDKVLGHYPDFVVGYYARSQAKKALGDTRGAERDYWRAFDIEKAAQSKTKKTKKSSSSTSTKETREDSDETIEKFNLLVVSEKSSEKRTRYSSRIRGRIQDNDVEVQPSPLFVLSYYEQSSSEEVPRVYYSEAIARFNDKKVLPKRLKPINREVALSQEQVAYHEQDITEISERTAGNADLCFRRALDYMLIQNLEQAIVDFDQAVELNKQFALAYFGRAIARAKLVEARQGASFIHQEAETVNAMTKALITTPRTNAMGVPAAAESPERKPAISDVDGELVMRDLNRTIELDPNFAYAYYNRAVLLARRGDTDAALSDYDRAIKAYPEFADAYFNRGLLLLSRGKAKEGIADLSRAGEYGLYKAYNIIKRMSTKS,failed
12,MTFPSVALVVVYVGGLVILGFGMAKIVYVPMALYFDWLYRSICARHRYSVLSDRPLVSVIVPGYNEAVVITGCVESILASRYLRLEVILVDDGSTDETASIMEGLAQQYDRVRFLSQANAGKGAALNCGIAAALGDILMFVDADGVFAPDTLIHMLEGFDDPKVGAVCGDDRPVNLDRLQTMMLAILSHVGTGLVRRALSLMNCLPIVSGNIGAFRSDLVRELGGFHEDTLGEDLELTWRVYKAGYRVRFQPKALVYAESPSTMGGLWRQRVRWSRGLLQTLRLHSGMLGSRRYGMFGAFLVFNAITMVLIPILQLVVLALLPFLYVAGMGPVPAEVLAILGWLGVFVSLALIVFSVGLNRSWRDLRFLWTLPLWPFYSVFVGLALASAIVKEIRGSPARWNKLQRTGIKSVTATHSVTSTDVSQRQEAHA,failed
13,MTFSQMILNLQNYWQEQGCAIMQPYDMPAGAGTFHPATFLRSLGKKPWAAAYVAPSRRPTDGRYGENPNRLGAYYQFQVLIKPSPDNIQELYLKSLENLGFDLKSHDIRFVEDNWESPSLGAWGLGWEVWLDGMEVTQFTYFQQVGGIAVDLVSAEITYGLERIAMYLQNVDNVYDIVWSEFNGEKIKYADVHKQSEYEFSKYNFEVSDVKILNEQFENSYKECKNILEQGLALPAYDYCMLAAHTFNLLDARGAISVAQRQDYMLKIRELSKNCAEIYKKNLNEAE,not failed
14,MTGEKIRSLRRDHKPSKEEGDLLEPGDEEAAAALGGTFTRSRIGKGGKACHKIFSNHHHRLQLKAAPASSNPPGAPALPLHNSSVTANSQSPALLAGTNPVAVVADGGSCPAHYPVHECVFKGDVRRLSSLIRTHNIGQKDNHGNTPLHLAVMLGNKECAHLLLAHNAPVKVKNAQGWSPLAEAISYGDRQMITALLRKLKQQSRESVEEKRPRLLKALKELGDFYLELHWDFQSWVPLLSRILPSDACKIYKQGINIRLDTTLIDFTDMKCQRGDLSFIFNGDAAPSESFVVLDNEQKVYQRIHHEESEMETEEEVDILMSSDIYSATLSTKSISFTRAQTGWLFREDKTERVGNFLADFYLVNGLVLESRKRREHLSEEDILRNKAIMESLSKGGNIMEQNFEPIRRQSLTPPPQNTITWEEYISAENGKAPHLGRELVCKESKKTFKATIAMSQEFPLGIELLLNVLEVVAPFKHFNKLREFVQMKLPPGFPVKLDIPVFPTITATVTFQEFRYDEFDGSIFTIPDDYKEDPSRFPDL,failed
15,MTGKKTLSIVGASGYAGGEFLRLALSHPYLEVKQVTSRRFAGEPVHFVHPNLRGRTNLKFVPPEKLEPADILVLALPHGVFAREFDRYSALAPVLVDLSADFRLKDPELYRRYYGEHPRPDLLGRFVYAVPELYREALKGADWIAGAGCNATATLLGLYPLLKAGVLKPTPIFVTLLISTSAGGAEASPASHHPERAGSIRVYKPTGHRHTAEVVENLPGRPEVHLTAIATDRVRGILMTAQCFVQDGWSERDVWQAYREAYAGEPFIRLVKQKKGVHRYPDPRFVQGTNYADIGFELEEDTGRLVVMTAIDNLVKGTAGHALQALNVRMGWPETLGLDFPGLHP,not failed
16,MTGMRKTLKATLAEARAQVEAALKEEGFGILTEIDVAATLKAKLGLEKPPYLILGACNPNLAARALEALPEIGLLLPCNVVLREAEEGVEVLIQDPKEMFRVLPEATQRALAPVAEEARTRLSRALSRL,not failed
17,MTGPTPTEAVDITVSVGGFKVGDQNYPINPKITFTNNTGQAIPGGTEFQFDIPVSAPDNAKDQSGGGLKVIASGHTRANNIGGLDGVMHRVSFSLPAWKDLPAGGTYELDMVYYLPISGPANYSVISGGKEFAFKFEQPDLPIGDLNAGTGGGGTTEPGSCDTAGLVTYPNLPQTDLEHHHHHH,failed
18,MTGRDLMLITGISPIILRFLFGGTAVVASRLVARSFGGRLGGVFAAFPAVYLAAVAGLSMEYEGSELLSVSEQLSRGALVGMSADICCALAASYLILKYGWKTGLSLSLLFWAVLAPVIYFTWF,failed
19,MTGVLTADRPPKPAAPRRYTVALARDEDDVRAAQRLRHDVFAGEMGALLASPQPGHDVDAFDAYCDHLLVREETTGQVVGTYRLLPPERAAVAGRLYAESEFDLAALDPIRSSLVEVGRSCVHPDHRDGAVIGLVWAGIARYMTDRGHAWLAGCCSLPLADGGALAAGAWDRVRTKHLAPEEYRVRPLLPWVPRPAAPAARTELPALLRGYLRLGAWVCGEPAHDVDFGVADLYVLLPMNRVDPRYLRHFLSLAPA,failed
